Measured values from article doi:10.1101/2022.11.26.518022 (bioRxiv, 2022).

Legend:
[1] = target: T1, Unr CSD789 (A756-D990) (Drosophila, UniProt B7Z0E2 756-990); experiment: NMR titration
T1 sequence (looked up): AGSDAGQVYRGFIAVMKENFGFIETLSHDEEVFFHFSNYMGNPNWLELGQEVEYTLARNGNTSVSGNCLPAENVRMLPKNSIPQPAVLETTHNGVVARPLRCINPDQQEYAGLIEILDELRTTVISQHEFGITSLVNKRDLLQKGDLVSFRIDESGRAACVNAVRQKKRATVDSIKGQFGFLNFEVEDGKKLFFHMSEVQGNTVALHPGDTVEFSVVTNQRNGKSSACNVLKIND

[2] = target: T2, Unr CSD78 (A756-K922) (Drosophila, UniProt B7Z0E2 756-922); experiment: NMR titration
T2 sequence (looked up): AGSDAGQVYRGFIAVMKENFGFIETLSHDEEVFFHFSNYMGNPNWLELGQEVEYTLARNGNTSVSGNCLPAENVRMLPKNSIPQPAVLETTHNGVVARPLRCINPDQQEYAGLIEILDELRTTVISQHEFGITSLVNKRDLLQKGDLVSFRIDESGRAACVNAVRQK

- binding result [1]: binds
- binding result [2]: binds
B1: pAbp RRM3 (G176-A263) (domain or fragment)
chain: not shown
